Biological target: T1, purified and recombinant USF1 protein (UniProt P22415 1-310, limits assumed)
T1 construct: also called USF1 recombinant factor; USF1 recombinant proteins
Experiment: EMSA with recombinant proteins on radiolabelled NGE DNA probe, PhosphoImager
Source text: We then analysed whether STAT1 and USF1 proteins formed the U complex co-operatively after induction by interferon γ. […] Further, adding increasing quantities of activated STAT1 to a given quantity of USF1 in the presence of an excess of free NGE probe encouraged the formation of STAT1/USF1 complexes rather than binding of USF1 alone.

T1 sequence (P22415 whole entry): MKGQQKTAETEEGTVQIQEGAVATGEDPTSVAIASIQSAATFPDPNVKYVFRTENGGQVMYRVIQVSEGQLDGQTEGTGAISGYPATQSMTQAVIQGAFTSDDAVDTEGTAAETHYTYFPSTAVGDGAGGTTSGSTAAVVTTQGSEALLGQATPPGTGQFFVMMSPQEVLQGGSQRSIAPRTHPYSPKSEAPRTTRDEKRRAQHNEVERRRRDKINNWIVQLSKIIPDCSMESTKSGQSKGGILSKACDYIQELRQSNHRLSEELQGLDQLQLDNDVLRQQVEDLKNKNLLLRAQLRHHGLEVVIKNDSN

probe bound to the complex, as fold of the sum of probe bound to USF1 alone and STAT1 alone: ~2 fold
B1: purified and activated recombinant STAT1 protein (other, UniProt P42224 1-750, looked up)
chain: MSQWYELQQLDSKFLEQVHQLYDDSFPMEIRQYLAQWLEKQDWEHAANDVSFATIRFHDLLSQLDDQYSRFSLENNFLLQHNIRKSKRNLQDNFQEDPIQMSMIIYSCLKEERKILENAQRFNQAQSGNIQSTVMLDKQKELDSKVRNVKDKVMCIEHEIKSLEDLQDEYDFKCKTLQNREHETNGVAKSDQKQEQLLLKKMYLMLDNKRKEVVHKIIELLNVTELTQNALINDELVEWKRRQQSACIGGPPNACLDQLQNWFTIVAESLQQVRQQLKKLEELEQKYTYEHDPITKNKQVLWDRTFSLFQQLIQSSFVVERQPCMPTHPQRPLVLKTGVQFTVKLRLLVKLQELNYNLKVKVLFDKDVNERNTVKGFRKFNILGTHTKVMNMEESTNGSLAAEFRHLQLKEQKNAGTRTNEGPLIVTEELHSLSFETQLCQPGLVIDLETTSLPVVVISNVSQLPSGWASILWYNMLVAEPRNLSFFLTPPCARWAQLSEVLSWQFSSVTKRGLNVDQLNMLGEKLLGPNASPDGLIPWTRFCKENINDKNFPFWLWIESILELIKKHLLPLWNDGCIMGFISKERERALLKDQQPGTFLLRFSESSREGAITFTWVERSQNGGEPDFHAVEPYTKKELSAVTFPDIIRNYKVMAAENIPENPLKYLYPNIDKDHAFGKYYSRPKEAPEPMELDGPKGTGYIKTELISVSEVHPSRLQTTDNLLPMSPEEFDEVSRIVGSVEFDSMMNTV
modifications: activated form (phosphorylated); the residue numbers are not given
notes: also called STAT1 factor
